This is an account of results in US11319374B2, “Inhibitors of prototypic galectin dimerization and uses thereof” (INSTITUT NATIONAL DE LA RECHERCHE SCIENTIFIQUE, priority 2015, dated 2022).

The assay concerns the target T1, hGal-7 homodimer (Homo sapiens, UniProt P47929).
T1 construct: made in house; host or cells: E. coli BL21 (DE3)
Kind of assay: hGal-7 homodimer disruption, low-SDS native gel electrophoresis / Western blotting. The format is biochemical. The note with it: recombinant hGal-7 0.5 μM. How it is done:
Production of recombinant hGal-7 and hGal-1. Human Gal-7 cDNA was cloned into pET-22b(+) using Ndel and HindIII restriction enzymes. Human pET-Gal-1 vector was generously donated by Dr. S. Sato (McGill University, QC, Canada). The proteins were produced in E. coli BL21 (DE3) cells at 37° C. Isopropyl p-D-1-thiogalactopyranoside (IPTG) (1 mM) was added to the bacterial culture at OD600nm=0.6-0.7 and then incubated for 4 h at 37° C. to allow protein production. Bacterial pellets were resuspended in lysis buffer (0.7 mg/mL lysozyme, 10 mM Tris pH 8, 100 mM NaCl, 1 mM EDTA, 1 mM DTT and a protease inhibitor cocktail) and then incubated for 1 h at 37° C. prior to centrifugation for 30 min at 15,000×g (4° C.). The supernatant was then filtered with 500 mL bottle top filter ([…]) (Corning®, New York, N.Y., USA) and then ran through a lactose-agarose column (Sigma®, St. Louis, Mo., USA). The protein was eluted in 1 mL fractions with 150 mM lactose solution. Purified fractions were analyzed by SDS-PAGE. The hGal-7 was then concentrated and purified using Centrifugal filter units (Amicon® Ultra-15, 10K) (EMD®, Etobicoke, ON) in 20 mM potassium phosphate at pH 7.1. All subsequent experiments with the recombinant proteins were performed in the same buffer solution unless mentioned otherwise. Brilliant Coomassie blue was purchased from BioRad® (Bio-Rad Laboratories®, Mississauga, ON, Canada). The recombinant human Bcl-2 protein fragment was purchased from Abcam® (Abcam®, Cambridge, UK, Cat #ab73696).
Western blotting. For the apoptosis tests, whole-cell extracts were homogenized and resuspended in RIPA buffer (Thermo Fisher Scientific®, Rockford, Ill., USA) containing protease inhibitors (Roche®, Laval, QC, Canada). Equal amounts of whole-cell extracts (25 μg) were separated on SDS-PAGE and transferred onto nitrocellulose membranes (Bio-Rad Laboratories®). The membranes were first blocked with 5% milk [w/v] in TBS/0.5% Tween® 20 [v/v] for 1 h at room temperature and subsequently blotted overnight in a solution of TBS containing 3% BSA [w/v] and 0.5% Tween 20 [v/v]. The following antibodies were used: a rabbit anti-Poly-(ADP-ribose) polymerase (PARP)-1 (p25) polyclonal antibody (1:5000; Epitomics®, Burlingame, Calif., USA) and a mouse anti-β-actin (1:10000; Sigma-Aldrich®, St-Louis, Mo., USA). Secondary antibodies consisted of horseradish peroxidase-conjugated donkey anti-rabbit (GE Healthcare®, Buckinghamshire, England) and sheep anti-mouse (GE Healthcare®) IgG. Detection was performed using the enhanced chemiluminescence method (GE Healthcare®). For the recombinant protein tests, each peptide was dissolved and maintained in 20 mM potassium phosphate at pH 7.1. The recombinant proteins and peptide dilutions were pre-incubated for 1 h at 4° C. prior to gel migration. The native polyacrylamide gel was made without SDS to allow molecular weight differentiation between the dimer and monomer. The following antibodies were used: a goat anti-Gal-7 antibody (1:10000; R&D Systems®, Minneapolis, Minn., USA), a mouse anti-Gal-1 antibody (1:10000; Proteintech®, Chicago, Ill., USA) and a rabbit anti-Bcl-2 antibody (1:1000; Abeam®, Cambridge, UK). Secondary antibodies consisted of donkey anti-goat (R&D Systems®) or sheep anti-mouse and sheep anti-rabbit (GE Healthcare®) IgG. Detection was performed as described above.
To determine whether these peptides could inhibit the formation of the hGal-7 homodimer, recombinant hGal-7 (0.5 μM) was incubated with increasing concentrations of hGal-7(13-25), hGal-7(85-102), hGal-7(95-108) or hGal 7(129-135) and the formation of homodimers was measured. To measure the ability of the peptides to disrupt the formation of hGal-7 dimers, a mild denaturing (low SDS) native gel electrophoresis, a commonly used approach to visualize monomer-dimer equilibrium, was used (FIG. 1A and FIG. 6).

The mark [1] stands for this setting: 20 mM potassium phosphate pH 7.1, FIG. 2A.

T1 sequence (P47929 2-136 limits assumed): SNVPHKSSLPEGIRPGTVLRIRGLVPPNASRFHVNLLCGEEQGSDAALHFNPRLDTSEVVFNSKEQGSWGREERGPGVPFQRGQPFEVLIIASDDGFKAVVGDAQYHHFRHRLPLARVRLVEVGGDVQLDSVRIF

On to “H-Leu-Asp-Ser-Val-Arg-Ile-Phe-NH2 (H-LDSVRIF-NH2; listed as Homo sapiens) [hGal-7(129-135), peptide corresponding to residues 129-135 of hGal-7]”, for which, where the note is “0.1 mM lactose solution, FIG. 2D”, the “disruption of hGal-7 homodimers in the presence of lactose” value was “not inhibited by the presence of lactose”. Under setting [1], the “concentration at which consistent decrease of hGal-7 homodimers starts” value stood at 10 µM and the “saturation dose for decrease of hGal-7 homodimers” value stood at 100 µM.
